What is called Kd is a measure of binding affinity in units of concentration.

Drawing on article PMC3206013, “Unique Interplay between Sugar and Lipid in Determining the Antigenic Potency of Bacterial Antigens for NKT Cells” (PLoS Biology, 2011), this text covers Kd for one substance.

The test has as its target biotinylated mouse CD1d/β2m, wild type, loaded with α-GalCer (mouse) (UniProt P11609). Description: SPR; α-GalCer loaded. Background: In SPR one partner is held on a chip, and binding of the other changes the refractive index at the surface.

On to “Vα14Vβ8.2 iNKT TCR (mouse invariant NKT cell T cell receptor)”, for which the Kd was determined as 39.9 nM.
